{
  "source": "paper PMC10630141",
  "about": "“OPUS-DSD: deep structural disentanglement for cryo-EM single-particle analysis” (Nature Methods, 2023)",
  "target": "the molecule itself",
  "test": "cryo-EM structure; NEXT complex (MTR4, RBM7, ZCCHC8) purified on poly-flag-tag beads and Superdex 200, cross-linked in a 10-30% glycerol gradient with 0.2% glutaraldehyde, dialysed into 20 mM HEPES pH 7.4, 150 mM NaCl; single-particle analysis, signal of one MTR4 helicase domain subtracted",
  "data": [
    {"protein": "ZCCHC8 (natural protein, UniProt Q6NZY4 1-707, looked up, ZCCHC8 of the nuclear exosome-targeting (NEXT) complex; The complex was cross-linked with glutaraldehyde before the grids were made; ZCCHC8 forms the dimeric centre of the complex; also called ZCCHC8 center; ZCCHC8 dimeric center; source: HEK293 GnTI- cells infected with recombinant baculovirus, overexpressed separately; cell pellets of the three NEXT proteins mixed, purified as the complex …) MAAEVYFGDLELFEPFDHPEESIPKPVHTRFKDDDGDEEDENGVGDAELRERLRQCEETIEQLRAENQELKRKLNILTRPSGILVNDTKLDGPILQILFMNNAISKQYHQEIEEFVSNLVKRFEEQQKNDVEKTSFNLLPQPSSIVLEEDHKVEESCAIKNNKEAFSVVGSVLYFTNFCLDKLGQPLLNENPQLSEGWEIPKYHQVFSHIVSLEGQEIQVKAKRPKPHCFNCGSEEHQMKDCPMPRNAARISEKRKEYMDACGEANNQNFQQRYHAEEVEERFGRFKPGVISEELQDALGVTDKSLPPFIYRMRQLGYPPGWLKEAELENSGLALYDGKDGTDGETEVGEIQQNKSVTYDLSKLVNYPGFNISTPRGIPDEWRIFGSIPMQACQQKDVFANYLTSNFQAPGVKSGNKRSSSHSSPGSPKKQKNESNSAGSPADMELDSDMEVPHGSQSSESFQFQPPLPPDTPPLPRGTPPPVFTPPLPKGTPPLTPSDSPQTRTASGAVDEDALTLEELEEQQRRIWAALEQAESVNSDSDVPVDTPLTGNSVASSPCPNELDLPVPEGKTSEKQTLDEPEVPEIFTKKSEAGHASSPDSEVTSLCQKEKAELAPVNTEGALLDNGSVVPNCDISNGGSQKLFPADTSPSTATKIHSPIPDMSKFATGITPFEFENMAESTGMYLRIRSLLKNSPRNQQKNKKASE", "values": [
      {"measurement": "stoichiometry N", "value": 2}
    ]}
  ]
}
